For this assay, the target named is T1, ComPS (residues 563-763 of the histidine kinase ComP from Bacillus amyloliquefaciens Q-426) (Bacillus amyloliquefaciens Q-426).
T1 construct: No removal of the 6xHis tag is described; The forward primer F-BaComPS has an NcoI site followed by AT, which may add Met-Asp before R563; also called BaComPS; truncated ComPS protein; source: E. coli BL21 (RIL), pPROEXHTa vector, purified (Ni-NTA)
The assay is described as follows: MST; microscale thermophoresis of ComPS with ComA; labelled partner, buffer and temperature not told in the text shown (curve in Supplementary Figure S8). The conditions noted are these: both partners purified. A general note: MST reads how a fluorescent partner responds to local heating, with and without ligand.

Drawing on paper PMC9620489, “Insights into the structure and function of the histidine kinase ComP from Bacillus amyloliquefaciens based on molecular modeling” (Bioscience Reports, 2022), this text covers Kd for 1 molecule.

B1: response regulator ComA (natural protein)
chain: MKKILVIDDHPAVMEGTKTILETDTNLSVDCLSPDASEQFVLRHDFSAYDLILMDLNLGDDISGIELSKKILKENPLCKIIVYTGYEVEDYFEESIRAGLHGAISKTESKEKIMQYIYHVLNGQILVDFSYFKQLMTQQKTKTSSSPQSEQDRLTPRERHILQEVEKGLTNQEIADALHLSKRSIEYSLTSIFNKLNVGSRTEAVLIAKSDNVL
B1 showed a Kd of 78 µM.

As a reminder, the Kd is the concentration at which binding is half-saturated.
